Data set [1] deals with thyroid hormone (T3) receptor, GC2 nuclear extract (Rattus norvegicus). As to the kind of experiment: cell_activity. Particulars: G29TK one copy, T3 stimulation of CAT in GC2 cells; three copies five-fold.
The test system is the same in data set [2]. Kind of data set: pulldown. Particulars: equilibrium binding constant by ABCD assay; buffer A, poly(dI-dC), 22 C.
The subject of data set [3] is glucocorticoid receptor alpha (hGR, pRShGR-alpha) (Homo sapiens). As to the kind of experiment: cell_activity. Particulars: CAT activity with DEX in CV-1 cells; wild-type reference.

Consider G186-158 (rat GH -186 to -158), for which, in data set [1], the activity was found to be 2.9 fold.

G209-146 (rat GH -209 to -146) gave a dissociation constant (Kd) in data set [2] of 1.4 nM. In data set [3], MMTV LTR (GMCAT) had an activity of 100%.

The term Kd denotes the concentration at which binding is half-saturated. A lower Kd goes with higher affinity.

Values taken from patent publication US5597705.
